Experimental data as given in article PMC2732195.

Biological target: wild type presenilin 1 (PS1) (UniProt P49768)
Test: FRET or BRET

Substance “wild type human APP C99 (from UniProt P05067 672-770) (domain or fragment)” has an Alexa 430 donor lifetime (FRET) of 1230 ps, an Alexa 488 donor lifetime (FLIM), average per cell of 1890 ps and an Alexa 488 donor lifetime (FLIM), cell interior of 2090 ps. It also gave an Alexa 488 donor lifetime (FLIM), cell periphery of 1420 ps and an FRET strength normalized to WT APP (normalized to WT APP) of 100.
